Test results from article doi:10.1101/2024.11.22.624870.

Biological target: camel APN (aminopeptidase N) (camel)

Q: “hCoV/229E-inf1 spike protein (S) (from UniProt P15423 16-1173) (natural protein)” was tested. Which pseudovirus entry, percentage of usage (min-max scaled), without hTMPRSS2 did it give?
A: Its pseudovirus entry, percentage of usage (min-max scaled), without hTMPRSS2 is 3%.
